From patent publication US20210188972A1 (A AND G PHARMACEUTICAL, published 2021)
Residue numbers refer to the chain shown, from its start.

T1: Human PTGFRN-ECD (extracellular domain; amino-acid 26 to amino-acid Y at 832), His-tag protein (human, UniProt Q9P2B2 26-832)
T1 construct: range 26-832; Expressed in Hek-293 cells, purified on a nickel column; also called recombinant PTGFRN; not shown: His-tag
T1 sequence (looked up): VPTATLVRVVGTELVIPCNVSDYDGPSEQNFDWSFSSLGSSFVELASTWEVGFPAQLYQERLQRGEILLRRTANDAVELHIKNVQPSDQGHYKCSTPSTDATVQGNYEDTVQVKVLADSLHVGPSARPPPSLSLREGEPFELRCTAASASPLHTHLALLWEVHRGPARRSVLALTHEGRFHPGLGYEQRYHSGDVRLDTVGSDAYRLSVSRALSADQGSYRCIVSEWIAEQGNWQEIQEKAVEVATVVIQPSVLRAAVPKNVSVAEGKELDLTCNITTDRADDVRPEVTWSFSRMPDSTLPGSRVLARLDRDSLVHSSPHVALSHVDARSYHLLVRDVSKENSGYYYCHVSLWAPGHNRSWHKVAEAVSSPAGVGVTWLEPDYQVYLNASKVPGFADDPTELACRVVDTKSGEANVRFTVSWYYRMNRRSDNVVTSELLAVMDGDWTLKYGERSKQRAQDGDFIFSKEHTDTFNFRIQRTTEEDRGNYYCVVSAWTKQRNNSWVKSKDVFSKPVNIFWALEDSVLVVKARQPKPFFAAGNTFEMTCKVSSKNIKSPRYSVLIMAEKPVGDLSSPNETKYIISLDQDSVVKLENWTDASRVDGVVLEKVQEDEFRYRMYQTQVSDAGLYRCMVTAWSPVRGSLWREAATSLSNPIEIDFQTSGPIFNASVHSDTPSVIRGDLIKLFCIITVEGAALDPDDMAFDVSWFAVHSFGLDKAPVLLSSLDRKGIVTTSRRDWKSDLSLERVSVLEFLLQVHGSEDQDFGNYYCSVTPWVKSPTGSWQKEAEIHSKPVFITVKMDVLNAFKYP

B1: 6F6 (antibody, V domains shown)
VH: QVQLQQSGAELVKPGASVKVSCKASGYTFTTYWMHWVKQRPGQGLEWIGRIHPSDSDTNYNQKFKGKATLTLDKSSSTAYMQLSSLTSEDSAVYYCAMSLYYTMDYWGQGTSVTVSS
VL: DIQMTQSPSSLSASLGGKVTITCKASQDIKKYIAWYQHKPGKGPRLLIHYTSTLQPGIPSRFSGSGSGRDYSFSISNLEPEDIATYYCLQYDNLLYTFGGGTKLEIK
notes: Mouse hybridoma mAb
B2: 2B12 (antibody, V domains shown)
VH: QVQLQQPGAELVKPGASVKMSCKASGYTFTSYWITWVKQGPGQGLEWIGDIYPGSGNTNYNEKFKSKATLTVDTSSSTAYMQLSSLTSEDSAVYYCARFFILTSYYFDYWGQGTTLTVSS
VL: GIVMTQSQKFMSTTVGDRVSITCKASQNVGTAVAWFQQKPGQSPKLLIYLASNRYTGVPDRFTGSGSGTDFTLTISNMQSEDLADYFCQQYSNYPLTFGAGTKLELK
notes: Mouse hybridoma mAb
B3: 33B7 (antibody, V domains shown)
VH: DVQLQESGPGLVKPSQSLSLTCSVTGCSITSGYYWNWIRQFPGNKLEWMGYISHDGNNNYSPSLKNRISITRDTSKNQFFLKLNSVTTEDTATYYCARGFYYYGYFGYWGQGTTLTVSS
VL: DIVMSQSPSSLAVSVGEKVTMSCKSSQSLLYSTNQKNYLAWYQQKPGQSPKPLIYWASTRESGVPDRFTGSGSGTDFTLTISSVKAEDLAVYYCQQYYSYRTFGGGTKLEIKR
notes: Murine hybridoma monoclonal IgG (ATCC PTA-124281); also called AG02; AGO2
B4: 1E2 (antibody, V domains shown)
VH: DVQLQESGPGLVKPSQSLSLTCSVTDYSITSGYYWNWIRQFPGNKLEWMGYISYDGSNNYNPSLKNRLSITRDTSKNQFFLKLNSVTPEDTATYYCARGWDYCFDYWGQGATLTVSS
VL: DIQMTQTTSSLSASLGDRVTISCSASQGISNYLNWYQQKPDGTVKLLIYYTSGLHSGVPSRFSGSGSGTDYSLTISNLEPEDIATYYCQQYSQLPWTFGGGTKLEIK
notes: Mouse hybridoma mAb
B5: 3E10 (antibody, V domains shown)
VH: EVHLVESGGDLVKPGGSLKLSCAASGFTFSSYGMSWVRQTPDKRLEWVASISSGGSHTYYPDRVKGRFTISRDNAKNTLYLQMSSLKSEDTAMYYCARHPSYYGSSLYCFDYWGQGTTLTVSS
VL: B4 VL with S24R, G28D, G53R, Y71F, P80Q, I83V, Y87F, Y91G, Q93T
B6: 10D9 (antibody, V domains shown)
VH: DVQLQESGPGLVKPSQSLSLTCSVTGCSITSGYDWNWIRQFPGNKLEWMGYINYDGNSNYIPSLKNRVSITRDTSKNQFFLKLNSVTTEDTATYYCARSDGYYWYFDVWGTGTTVTVSS
VL: DIKMTQSPSSMYASLGERVTITCKASQDIKSYLSWYQQKPWKSPKTLIYYATSLADGVPSRFSASGSGQDYSLTISSLESDDTATYYCLQHAERPLTFGAGTKLELK
notes: Mouse hybridoma mAb
B7: 9A9 (antibody, V domains shown)
VH: QVQLQQSGPELVKPGASVKLSCKASGYTFTTYDINWVKQRPGQGLEWIGWLYPRDGNTNYNEKFKGKASLTVDTSSSTAYMELHSLTSEDSAVYFCARDYYGSTYGYFDYWGQGTTLTVSS
VL: DIQMTQSPASLSASVGGTVTITCRASEKIYSYLAWYQQKQGKSPQLLVYDANTLAQGVPSRFSGSGSGTQFSLKINSLQPEDFGSYYCQHHYVTPLTFGAGTKLALK
notes: Mouse hybridoma mAb

Experiments:
[1] = target: T1, Human PTGFRN-ECD (extracellular domain; …); experiment: Octet Red96 pairing (binning matrix) on PTGFRN-ECD; capture Ab (1st loading Ab): 9A9
[2] = target: T1, Human PTGFRN-ECD (extracellular domain; …); experiment: Octet Red96 pairing (binning matrix) on PTGFRN-ECD; capture Ab (1st loading Ab): 1E2
[3] = target: T1, Human PTGFRN-ECD (extracellular domain; …); experiment: Octet Red96 pairing (binning matrix) on PTGFRN-ECD; capture Ab (1st loading Ab): 9G8
[4] = target: T1, Human PTGFRN-ECD (extracellular domain; …); experiment: Octet Red96 pairing (binning matrix) on PTGFRN-ECD; capture Ab (1st loading Ab): 7B4
[5] = target: T1, Human PTGFRN-ECD (extracellular domain; …); experiment: Octet Red96 pairing (binning matrix) on PTGFRN-ECD; capture Ab (1st loading Ab): 9D8
[6] = target: T1, Human PTGFRN-ECD (extracellular domain; …); experiment: BLI, Octet Red96, mAb on AMC sensor, PTGFRN-ECD 100 nM as analyte
Description: Antibody scouting/affinity based antibody ranking was performed to determine on/off rates and KD ranking of selected anti-PTGFRN mAbs using AMC sensor on forteBio Octet Red96 (FortéBio, Menlo Park, Calif.). PTGFRN-ECD, 100 nM, was used as the analyte.

[7] = target: T1, Human PTGFRN-ECD (extracellular domain; …); experiment: Octet Red96 pairing (binning matrix) on PTGFRN-ECD; capture Ab (1st loading Ab): 10E6
[8] = target: T1, Human PTGFRN-ECD (extracellular domain; …); experiment: Octet Red96 pairing (binning matrix) on PTGFRN-ECD; capture Ab (1st loading Ab): 4F4
[9] = target: T1, Human PTGFRN-ECD (extracellular domain; …); experiment: Octet Red96 pairing (binning matrix) on PTGFRN-ECD; capture Ab (1st loading Ab): 33B7
[10] = target: T1, Human PTGFRN-ECD (extracellular domain; …); experiment: Octet Red96 pairing (binning matrix) on PTGFRN-ECD; capture Ab (1st loading Ab): 10D9
[11] = target: T1, Human PTGFRN-ECD (extracellular domain; …); experiment: Octet Red96 pairing (binning matrix) on PTGFRN-ECD; capture Ab (1st loading Ab): 2B12
[12] = target: T1, Human PTGFRN-ECD (extracellular domain; …); experiment: Octet Red96 pairing (binning matrix) on PTGFRN-ECD; capture Ab (1st loading Ab): 6F6

Binder	Octet pairing response [1]	Octet pairing response [2]	Octet pairing response [3]	Octet pairing response [4]	Octet pairing response [5]	Kd [6] [pM]	Response [6]	koff [6] [s⁻¹]	kon [6] [M⁻¹ s⁻¹]	Octet pairing response [7]	Octet pairing response [8]	Octet pairing response [9]	Octet pairing response [10]	Octet pairing response [11]	Octet pairing response [12]
B1	0.222	0.232	0.146	0.103	0.165	< 1	0.335	< 1e-07	69100	0.255	0.131	0.126	0.191	0.124	–
B2	0.0744	0.27	0.0926	0.0818	0.0857	< 1	0.272	< 1e-07	48500	0.157	–	0.132	0.111	–	0.13
B3	–	–	–	–	–	3090	0.245	0.000602	195000	–	0.125	–	–	–	–
B4	0.27	–	0.215	0.157	0.184	< 1	0.41	< 1e-07	63800	0.306	–	0.185	0.24	0.23	–
B5	0.224	–	0.124	0.12	0.199	< 1	0.472	< 1e-07	120000	0.305	0.112	0.252	0.219	0.251	0.0759
B6	0.226	0.269	0.142	0.1	0.186	< 1	0.342	< 1e-07	85600	0.329	–	0.236	–	0.18	0.215
B7	–	–	–	0.162	–	< 1	0.319	< 1e-07	151000	–	–	–	–	–	–
